Data reported in patent publication US20140057847A1.

Biological target: rat growth hormone releasing hormone receptor (rat) (UniProt Q02644)
Assay: radioligand competition binding of radioiodinated JV-1-42 to membrane fractions of ischemic rat heart

Sequence of UniProt Q02644 (Q02644 23-464): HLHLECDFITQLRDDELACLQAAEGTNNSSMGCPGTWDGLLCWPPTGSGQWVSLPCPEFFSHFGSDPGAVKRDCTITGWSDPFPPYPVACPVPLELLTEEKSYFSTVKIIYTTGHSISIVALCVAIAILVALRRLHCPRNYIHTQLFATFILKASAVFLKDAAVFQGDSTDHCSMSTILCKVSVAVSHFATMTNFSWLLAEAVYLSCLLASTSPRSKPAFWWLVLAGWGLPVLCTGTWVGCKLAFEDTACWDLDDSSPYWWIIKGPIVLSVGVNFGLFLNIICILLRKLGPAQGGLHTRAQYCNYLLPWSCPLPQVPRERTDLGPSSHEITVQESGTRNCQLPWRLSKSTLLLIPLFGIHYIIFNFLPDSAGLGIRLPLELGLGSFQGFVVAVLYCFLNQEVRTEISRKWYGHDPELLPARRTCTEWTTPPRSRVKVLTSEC

With “GHRH antagonist JV-1-42 (radioiodinated) (peptide)” the Bmax (fmol/mg protein) was 51.3 and the Kd was 0.86 nM.
